Patent publication US20100028993A1
Square brackets hold non-standard residues; d marks the D form. Ends that are not written are not given here. Hyp = O=C(O)[C@@H]1C[C@@H](O)CN1

Assays:
[1] = molecular target: growth hormone receptor (GHR) on GHR-expressing NIH 3T3-L1 cells (Mus musculus (Mouse)) (UniProt P16882); experiment: radioreceptor competition assay; displacement of [125I]-hGH from monolayers of GHR-expressing NIH 3T3-L1 cells
[2] = molecular target: anti-hGH-(SO)10 antibodies (1:10,000 serum dilution); experiment: competition ELISA; hGH-(SO)10-coated plates, anti-hGH-(SO)10 serum 1:10,000, 100 ug/ml (SO)10 as competitive inhibitor

UniProt P16882, sequence (P16882 25-650 limits assumed, form in doubt): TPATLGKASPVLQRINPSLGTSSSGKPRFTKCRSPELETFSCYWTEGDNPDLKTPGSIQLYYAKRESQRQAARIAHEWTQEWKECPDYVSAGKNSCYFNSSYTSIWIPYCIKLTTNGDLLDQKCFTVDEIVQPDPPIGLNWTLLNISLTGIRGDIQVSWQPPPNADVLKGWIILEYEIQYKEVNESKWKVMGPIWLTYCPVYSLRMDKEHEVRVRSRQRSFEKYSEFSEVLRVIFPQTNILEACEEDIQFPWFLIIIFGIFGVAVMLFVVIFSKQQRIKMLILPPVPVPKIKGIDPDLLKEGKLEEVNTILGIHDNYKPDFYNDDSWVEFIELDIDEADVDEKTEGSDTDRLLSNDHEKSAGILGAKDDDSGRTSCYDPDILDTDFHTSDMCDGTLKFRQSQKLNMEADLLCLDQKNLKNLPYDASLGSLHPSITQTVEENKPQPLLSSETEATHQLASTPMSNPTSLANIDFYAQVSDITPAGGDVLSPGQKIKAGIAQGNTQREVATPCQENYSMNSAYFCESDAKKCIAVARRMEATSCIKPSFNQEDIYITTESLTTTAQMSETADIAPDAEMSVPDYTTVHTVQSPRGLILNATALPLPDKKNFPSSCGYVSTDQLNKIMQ

Molecule | EC50 [1] [nM] | percent inhibition [2] [%]
hGH-(SP)10-EGFP fusion glycoprotein (ligand) | 10 | –
S[Hyp]S[Hyp]S[Hyp]S[Hyp]S[Hyp]S[Hyp]S[Hyp]S[Hyp]S[Hyp]S[Hyp] (not fully specified) [purified (SP)10 / (SO)10 glycomodule] | – | 5
